# Earlier results, collected in PMC6389997.
# How the values were obtained:
# Conditions in all cases: cited from earlier work
# [1] = biological target: sigma32 (Escherichia coli) (UniProt P0AGB3)
# [2] = biological target: Im7 (unfolded-like) (Escherichia coli) (UniProt Q03708)
# [3] = biological target: Im7 (folded) (Escherichia coli) (UniProt Q03708)
# [4] = biological target: Im7 (intermediate-like) (Escherichia coli) (UniProt Q03708)
# Chain of Im7 (intermediate-like) (Escherichia coli) (Q03708 whole entry): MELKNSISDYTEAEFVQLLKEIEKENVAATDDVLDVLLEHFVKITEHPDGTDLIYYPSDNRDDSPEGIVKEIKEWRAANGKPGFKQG
# Chain of Spy (P77754 24-161): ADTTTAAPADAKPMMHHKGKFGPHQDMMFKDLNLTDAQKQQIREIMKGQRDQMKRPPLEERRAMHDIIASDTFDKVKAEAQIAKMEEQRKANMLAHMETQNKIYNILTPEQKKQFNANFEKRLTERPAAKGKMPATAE
# Chain of DnaK (P0A6Y8 2-638): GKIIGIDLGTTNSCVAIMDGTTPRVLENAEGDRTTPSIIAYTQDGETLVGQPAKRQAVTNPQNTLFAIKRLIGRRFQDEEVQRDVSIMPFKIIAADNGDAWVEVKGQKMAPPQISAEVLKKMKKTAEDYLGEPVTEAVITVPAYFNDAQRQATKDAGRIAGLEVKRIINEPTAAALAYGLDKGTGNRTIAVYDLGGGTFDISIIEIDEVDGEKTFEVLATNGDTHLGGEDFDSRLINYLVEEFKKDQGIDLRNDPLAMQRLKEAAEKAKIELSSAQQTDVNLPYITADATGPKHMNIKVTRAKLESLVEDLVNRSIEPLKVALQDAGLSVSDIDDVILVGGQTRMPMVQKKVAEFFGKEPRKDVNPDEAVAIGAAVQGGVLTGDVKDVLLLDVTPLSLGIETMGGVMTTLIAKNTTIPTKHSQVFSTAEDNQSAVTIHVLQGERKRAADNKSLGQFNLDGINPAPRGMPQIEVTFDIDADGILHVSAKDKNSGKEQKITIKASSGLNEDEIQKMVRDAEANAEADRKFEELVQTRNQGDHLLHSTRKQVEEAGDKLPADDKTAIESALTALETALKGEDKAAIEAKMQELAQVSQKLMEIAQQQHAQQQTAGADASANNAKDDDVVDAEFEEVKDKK
# Chain of sigma32 (Escherichia coli) (P0AGB3 whole entry): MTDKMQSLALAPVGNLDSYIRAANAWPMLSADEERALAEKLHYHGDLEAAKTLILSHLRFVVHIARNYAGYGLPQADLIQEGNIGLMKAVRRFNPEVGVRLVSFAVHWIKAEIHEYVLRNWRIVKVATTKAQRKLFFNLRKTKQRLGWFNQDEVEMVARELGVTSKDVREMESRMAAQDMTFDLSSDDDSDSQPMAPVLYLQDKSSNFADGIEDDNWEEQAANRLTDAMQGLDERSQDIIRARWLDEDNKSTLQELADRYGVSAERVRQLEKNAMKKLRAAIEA
# Chain of Im7 (unfolded-like) (Escherichia coli) (Q03708 whole entry): as the sequence (Q03708 whole entry) above
# Chain of Im7 (folded) (Escherichia coli) (Q03708 whole entry): as above
Substance,Kd [1] [µM],Kd [2] [µM],Kd [3] [µM],Kd [4] [µM]
DnaK (from UniProt P0A6Y8),1.4,–,–,–
Spy (from UniProt P77754),–,10.4,20.5,3.5
